Laboratory results from patent US20230055235, “ANTI-CANCER IMMUNOTHERAPEUTIC COMPOSITION FOR TREATING CANCER” (INTEROLIGO CORPORATION., published 2023).

Target: PD-L1 (programmed death-ligand 1) (UniProt Q9NZQ7 Q9NZQ7:19-238)
Experiment: inhibition; PD-1/PD-L1 binding ELISA
Procedure: PD-1/PD-L1 binding inhibition of the synthetic fragment aptamer was determined by conducting a purified protein-based test. Purified protein-based PD-1/PD-L1 binding inhibition test (BPS, USA) was conducted by ELISA method based on horseradish peroxidase (HRP). First, purified PD-L1 protein according to the product manual was fixed on a 96 well plate, and then each well was washed with Immuno Buffer 1 for a total of 3 times in order to remove unbound PD-L1 protein. Aptamers were prepared in a selection buffer for each experimental concentration and slowly cooled from 95° C. to 37° C. by 0.1° C. per second. 5 μL of the aptamer was added to the well to which PD-L1 protein was fixed, followed by adding 20 μL of Biotin-bound PD-1 protein prepared according to the corresponding instructions to each well again. […] After adding 100 μL of the HRP substrate mixture to the well, from which the supernatant was removed, a fluorescent intensity was measured using a luminometer so as to determine the inhibition of PD-1/PD-L1 binding. IC₅₀ (50% inhibitory concentration) was calculated using the online tool.
Aptamer PD-1/PD-L1 binding inhibitory activity described in Table 6 of Example 1.3.1 was measured in the same manner as in Example 1.2.2.

Sequence of PD-L1 (programmed death-ligand 1) (Q9NZQ7 19-238, one chain of several): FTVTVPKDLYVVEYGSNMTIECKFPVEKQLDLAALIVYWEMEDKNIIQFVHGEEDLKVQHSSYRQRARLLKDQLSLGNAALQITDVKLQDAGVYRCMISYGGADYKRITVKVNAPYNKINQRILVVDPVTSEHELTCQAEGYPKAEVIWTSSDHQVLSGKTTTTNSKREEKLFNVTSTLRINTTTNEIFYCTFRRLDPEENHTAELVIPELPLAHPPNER

AAGTTTTTGATTGTACCTTAGTG (ssDNA, Bz-dU at every n) [PL021]
IC50: 0.0277 µM
